Measured values published in patent US20080075726A1 (VACCINEX, published 2008).

T1: recombinant murine IL-6 (murine, UniProt P08505 25-211)
T1 sequence (looked up): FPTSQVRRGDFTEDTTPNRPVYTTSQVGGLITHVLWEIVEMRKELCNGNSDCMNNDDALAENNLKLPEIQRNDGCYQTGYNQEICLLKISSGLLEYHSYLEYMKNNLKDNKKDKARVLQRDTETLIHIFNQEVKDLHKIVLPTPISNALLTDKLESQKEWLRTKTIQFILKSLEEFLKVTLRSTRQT

T2: recombinant rat IL-6 (rat, UniProt P20607 25-211)
T2 sequence (looked up): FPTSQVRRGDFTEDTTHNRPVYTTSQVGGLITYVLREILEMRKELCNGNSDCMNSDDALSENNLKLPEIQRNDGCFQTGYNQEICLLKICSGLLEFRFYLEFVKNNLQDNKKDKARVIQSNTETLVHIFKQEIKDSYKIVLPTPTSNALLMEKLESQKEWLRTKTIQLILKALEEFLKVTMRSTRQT

T3: natural monkey IL-6 from rhesus monkey serum (rhesus monkey, UniProt P51494 28-212, limits assumed)
T3 sequence (looked up): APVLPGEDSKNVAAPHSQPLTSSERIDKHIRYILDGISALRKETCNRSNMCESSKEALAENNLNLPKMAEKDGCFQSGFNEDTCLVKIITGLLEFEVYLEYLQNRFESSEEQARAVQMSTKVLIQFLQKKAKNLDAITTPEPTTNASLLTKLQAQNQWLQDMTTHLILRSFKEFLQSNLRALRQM


Columns and labels:
recombinant human IL-6 [1] = biological target: T4, recombinant human IL-6 (human, UniProt P05231 30-212, limits assumed); assay: flow cytometry blocking assay: biotinylated rhIL-6 (12 ng/ml on the sheet; 12.5 ng/ml in paragraph 183) pre-incubated with the mAb, then U266 cells bearing IL-6 receptor added; cell-bound IL-6 shown with streptavidin-PE; readout % inhibition
T4 construct: also called rhIL6; human recombinant IL-6
Experimental: FcR-blocked U266 cells (about 250,000 cells) were then added and co-incubated for another 30 min on ice. […] After washing, the cells were analyzed by flow cytometry.

recombinant human IL-6 [2] = biological target: T4, recombinant human IL-6; assay: Biacore 2000, mAb captured on anti-human IgG CM5 chip, human IL-6 40-1.25 nM injected
Experimental: (§1) IC50 ELISA was performed as described above. Affinity analysis by Biacore was performed according to manufacturer protocols using HBS-EP buffer (Biacore AB).

recombinant human IL-6 [3] = biological target: T4, recombinant human IL-6; assay: competition ELISA, rhIL-6 in solution against captured IL-6
Experimental: (§2) Briefly, plates were coated with 2 μg/ml of mBE4 capture antibody in coating buffer, 100 μl per well. The plates were incubated overnight. Next, the plates were washed 3 times and tapped dry. The plates were then blocked with 200 μl per well of Assay Diluent or 10% FBS in PBS and incubated for 2 hours. […] The reaction was left at RT for 3-4 hours. […] Next, the plates were washed 3 times and tapped dry. […] The plates were incubated for 1-2 hours. The plates were washed 3 times and tapped dry. […] The plates were incubated at RT for 2 hours. (Therefore, any unbound mAb at this point will be measured by ELISA). Plates were then washed 5 times and tapped dry. 100 μl of detection Ab goat anti-human IgG F(ab)′2-HRP (Jackson lab) was added at 1:20,000 dilutions or 1:40,000 dilutions (depending on lot) and the plates were incubated for 1-2 hours. The plates were washed 7 times and tapped dry. Next, the Developer Substrate (equal parts of each reagent in the kit) was pre-mixed and allowed to warm to room temperature before use. Then 100 μl of Developer was added to each well. The plates were allowed to develop for 15 minutes un-sealed in a drawer in the dark. Finally, developing was stopped by adding 100 μl of 2N H₂SO₄ to each well and plates were read as Endpoint at 450 nm-[…].

recombinant murine IL-6 = biological target: T1, recombinant murine IL-6; assay: ELISA on coated murine IL-6; human mAbs detected with rabbit anti-human IgG-HRP; series 100, 50, 25, 12.5 ng/ml (antibody by paragraph 42; headed mIL-6 (ng/ml) on the sheet)
Experimental: (§3) For sample “0,” no antibody was added. […] Each column represents a mean of two experiments +/− standard deviation.
(§4) For experiments using human monoclonal antibodies, IgG1 Kappa (human myeloma IgG1; Sigma-Aldrich Co.) mAb was used as a control. Rabbit anti-human IgG-HRP (Dako) was added at a dilution of 1/10,000 at 100 μl/well for detection of mAbs. […] For pAbs, Streptavidin-HRP (Prozyme) was added for detection at 100 μl/well. Antibodies were applied at concentrations of 12.5, 25, 50, and 100 ng/ml.

recombinant rat IL-6 = biological target: T2, recombinant rat IL-6; assay: ELISA on coated rat IL-6; human mAbs detected with rabbit anti-human IgG-HRP; series 100, 50, 25, 12.5 ng/ml (antibody by paragraph 42; headed mIL-6 (ng/ml) on the sheet)
Experimental: as §3, §4

recombinant human IL-6 [4] = biological target: T4, recombinant human IL-6; assay: competition ELISA, rhIL-6 in solution against captured IL-6 (Affinity (nM) by IC50 ELISA)
Experimental: as §2, §1

human serum albumin = human serum albumin (human, UniProt P02768 25-609); assay: ELISA on a panel of control antigens (data not shown)
Sequence of human serum albumin (P02768 25-609 limits assumed): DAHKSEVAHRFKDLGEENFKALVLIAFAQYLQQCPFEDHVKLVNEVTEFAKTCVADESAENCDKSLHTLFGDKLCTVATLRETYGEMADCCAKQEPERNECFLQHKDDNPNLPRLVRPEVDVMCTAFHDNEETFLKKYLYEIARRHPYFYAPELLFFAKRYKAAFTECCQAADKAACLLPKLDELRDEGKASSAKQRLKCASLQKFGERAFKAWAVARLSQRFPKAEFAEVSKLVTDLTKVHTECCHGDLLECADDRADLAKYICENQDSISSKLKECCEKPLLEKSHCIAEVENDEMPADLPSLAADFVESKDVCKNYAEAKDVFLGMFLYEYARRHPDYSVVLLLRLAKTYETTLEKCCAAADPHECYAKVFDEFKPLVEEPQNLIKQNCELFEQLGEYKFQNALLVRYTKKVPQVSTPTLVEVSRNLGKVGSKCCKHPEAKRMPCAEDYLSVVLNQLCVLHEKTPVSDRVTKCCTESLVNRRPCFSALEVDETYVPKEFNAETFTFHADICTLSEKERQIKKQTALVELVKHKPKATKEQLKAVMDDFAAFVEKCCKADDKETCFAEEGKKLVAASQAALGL

human insulin = human insulin (human, UniProt P01308 25-54; P01308 90-110, limits assumed); assay: as above
Sequence of human insulin (P01308 25-54 limits assumed, chain 1 of 2): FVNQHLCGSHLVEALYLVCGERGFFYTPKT
Sequence of human insulin (P01308 90-110 limits assumed, chain 2 of 2): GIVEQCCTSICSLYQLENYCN

bovine serum albumin = bovine serum albumin (bovine, UniProt P02769 25-607); assay: as above
Sequence of bovine serum albumin (P02769 25-607 limits assumed): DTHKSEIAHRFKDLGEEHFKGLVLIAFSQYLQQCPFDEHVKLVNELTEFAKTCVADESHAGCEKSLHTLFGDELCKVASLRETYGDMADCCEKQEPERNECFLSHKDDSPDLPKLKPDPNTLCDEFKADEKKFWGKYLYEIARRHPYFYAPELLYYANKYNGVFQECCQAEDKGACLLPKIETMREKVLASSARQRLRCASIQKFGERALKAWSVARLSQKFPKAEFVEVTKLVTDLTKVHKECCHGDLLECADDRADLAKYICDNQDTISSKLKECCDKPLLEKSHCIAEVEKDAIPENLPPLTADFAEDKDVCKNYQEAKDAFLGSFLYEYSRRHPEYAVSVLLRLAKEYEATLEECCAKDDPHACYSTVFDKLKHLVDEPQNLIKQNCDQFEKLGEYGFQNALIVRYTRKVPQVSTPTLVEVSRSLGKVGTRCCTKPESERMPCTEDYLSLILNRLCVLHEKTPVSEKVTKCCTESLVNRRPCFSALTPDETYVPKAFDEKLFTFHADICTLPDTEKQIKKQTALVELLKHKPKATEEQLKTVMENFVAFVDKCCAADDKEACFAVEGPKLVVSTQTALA

[5] = biological target: T3, natural monkey IL-6 from rhesus monkey …; assay: competition ELISA (U-Cytech Monkey IL-6 kit): rhesus monkey serum (plasma on the sheet) at dilutions 1/10 to 1/640 with the antibody at 5 µg/ml as competitor of the kit's coated IL-6 antibody; a lower OD than the sample '0' means binding

Binder | IC50 (read off the curve) (recombinant human IL-6 [1]) | Kd (recombinant human IL-6 [2]) | IC50 (recombinant human IL-6 [3]) | binding result (recombinant murine IL-6) | binding result (recombinant rat IL-6) | IC50 (recombinant human IL-6 [4]) | binding result (human serum albumin) | binding result (human insulin) | binding result (bovine serum albumin) | binding result [5]
murine mAb B-E8 (antibody, V domains shown, Biotinylated in FIG. 16., Murine anti-IL-6 antibody from which the human mAbs were derived; also called Elsilimomab) VH: QVTLKESGPGILKPSQTLSLTCSFSGFSLSTSGMGVGWIRQPSGKGLEWLAHIWWDDDKYYNPSLKSQLTISKDTSRNQVFLKITSVDTADTATYYCARSYDDYLYYALDYWGQGTSVTVSS VL: DIVMTQSPATLSVTPGDRVSLSCRASQSISDYLHWYQQKSHESPRLLIKSVSQSISGIPSRFSGSGSGSDFTLSINSVEPEDVGVYYCQNGHSFPLTFGAGTKLELK | ~0.02 µg/mL | – | – | – | – | – | – | – | – | –
mAb 88 (chimeric B-E8 control antibody) (antibody, V domains shown, Biotinylated in FIG. 16., Chimeric form of murine B-E8; also called control mAb 88) VH: QVTLKESGPGILKPSQTLSLTCSFSGFSLSTSGMGVGWIRQPSGKGLEWLAHIWWDDDKYYNPSLKSQLTISKDTSRNQVFLKITSVDTADTATYYCARSYDDYLYYALDYWGQGTSVTVSS VL: DIVMTQSPATLSVTPGDRVSLSCRASQSISDYLHWYQQKSHESPRLLIKSVSQSISGIPSRFSGSGSGSDFTLSINSVEPEDVGVYYCQNGHSFPLTFGAGTKLELK | ~0.02 µg/mL | 0.02 nM | 0.5 nM | no binding (tested: 100 ng/ml (Ab: 0.1 µg/ml in the title)) | no binding (tested: 100 ng/ml) | 0.01 nM | – | – | – | –
mAb 926 (antibody, human IgG1, kappa, V domains shown) VH: QVTLKESGPTLVKPTQTLTLTCSFSGFSLSTSGVGVGWVRQPPGKALEWLAFIFWDDDKYYSPSLESRLTITKDTSKNQVVLTMTNMDPVDTATYYCARSADDYLYYALDYWGQGTLVTVSS VL: DIQMTQSPSSLSAFVGDGVTMTCWASQSINDYLNWYHQRPGEAPELLVFAASNLQIGVPSRFRGSGSETYFTLTINSLQPEDSGTYFCQNGHSFPLTFGGGTKLEIKR | – | 0.13 nM | 0.07 nM | no binding (tested: 100 ng/ml (Ab: 0.1 µg/ml in the title)) | no binding (tested: 100 ng/ml) | 0.033 nM | – | – | – | –
mAb 1339 (antibody, human IgG1, kappa, V domains shown) VH: QVTLKESGPTLVKPTQTLTLTCSFSGFSLSTSGVGVGWVRQPPGKALEWLAFIWWDDDKYYSPSLESRLTITKDTSKNQVVLTMTNMDPVDTATYYCARSADDYLYYSFDTWGQGTLVTVSS VL: DIQMTQSPSSLSAFVGDGVTMTCWASQSINDYLNWYHQRPGEAPELLVFAASNLQIGVPSRFRGSGSETYFTLTINSLQPEDSGTYFCQNAHSFPLTFGGGTKLEIKR | – | 0.071 nM | 0.026 nM | no binding (tested: 100 ng/ml (Ab: 0.1 µg/ml in the title)) | no binding (tested: 100 ng/ml) | 0.026 nM | no binding | no binding | no binding | binds
